According to publication PMC8024369:
“And” between values parts separate entries of the source, which are not always exact repeats. Identical values can stand only once.

How the values were obtained:
[1] = molecular target: rationally optimised SUWA (N22E/H86K mutant of SUWA, super WA20); assay: SEC-MALS; Superdex 75 Increase 10/300 GL, 20 °C, 20 mM HEPES pH 7.5, 150 mM NaCl, 5% glycerol; oligomeric number from the mass of each peak and the theoretical mass of the monomer
[2] = molecular target: rationally optimised WA20 (N22A/H86K mutant of the de novo protein WA20); assay: as above

| mass fraction of peak (i), dimer [1] | mass fraction of peak (ii), tetramer [1] | mass fraction of peak (iii), hexamer [1] | mass fraction of peak (iv), higher oligomers [1] | mass fraction of peak (i), dimer [2] | mass fraction of peak (ii), tetramer [2] | mass fraction of peak (iii), hexamer [2] | stoichiometry N [2] | Substance |
| --- | --- | --- | --- | --- | --- | --- | --- | --- |
| 64% | 18% | 7% | 11% |  |  |  |  | rationally optimised SUWA (N22E/H86K mutant of SUWA, super WA20) |
|  |  |  |  | 77% | 21% | 2% | 2 mer and 4 mer and 6 mer | rationally optimised WA20 (N22A/H86K mutant of the de novo protein WA20) |
